Data reported in patent US7038022, “Multimeric forms of members of the steroid/thyroid superfamily of receptors” (The Salk Institute for Biological Studies).

Legend:
RAR/RXR heterodimer [1] = target: T1, RAR/RXR heterodimer (UniProt P10276;P19793 P10276:1-462,P19793:1-462); experiment: EMSA; high affinity; 10-fold excess of unlabeled site competes; conditions: label: 32P
[2] = target: the molecule itself; experiment: gel mobility shift, 32P-labeled DR-1 probe
[3] = target: T2, COUP-TF/RXRalpha heterodimer (UniProt P10589;P19793 P10589:1-423,P19793:1-462); experiment: EMSA; supershift data similar to DR-1; conditions: tags: RXR as GST fusion; label: 32P
RAR/RXR heterodimer [4] = target: T1, RAR/RXR heterodimer; experiment: EMSA; high affinity; also competes for CRBPII-RXRE binding; conditions: label: 32P
COUP-TF (EAR-3) = target: T3, COUP-TF (EAR-3) (UniProt P10589 P10589:1-423); experiment: EMSA; COUP-TF-specific complex, 500 ng protein; conditions: tags: none, pET-8C bacterial expression, partially purified; label: 32P
T3 sequence: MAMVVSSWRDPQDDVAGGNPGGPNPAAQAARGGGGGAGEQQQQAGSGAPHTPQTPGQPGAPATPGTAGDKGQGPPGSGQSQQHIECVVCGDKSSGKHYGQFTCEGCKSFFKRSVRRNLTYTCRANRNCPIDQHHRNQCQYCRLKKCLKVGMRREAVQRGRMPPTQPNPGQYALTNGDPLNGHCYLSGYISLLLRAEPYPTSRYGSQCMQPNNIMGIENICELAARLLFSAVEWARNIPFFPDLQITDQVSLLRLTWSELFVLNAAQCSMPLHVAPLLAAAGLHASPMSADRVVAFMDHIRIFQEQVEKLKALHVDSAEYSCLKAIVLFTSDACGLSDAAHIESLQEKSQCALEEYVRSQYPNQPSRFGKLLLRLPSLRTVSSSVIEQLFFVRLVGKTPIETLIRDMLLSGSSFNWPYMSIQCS
Description: (§1) Bacterial-expressed COUP-TF and RXR-glutathione-S-transferase fusion protein (RXR-GST) were mixed and the resulting complexes analyzed by gel mobility shift assays using ^32P-labeled DR-1 oligonucleotide (i e., SEQ ID No. 21) as probe. The larger RXR fusion protein was used in order to maximize the migratory differences observed between the COUP-TF and RXR complexes.
(§2) Gel mobility shift assays were performed using ^32P-labeled DR-1 oligonucleotide (SEQ ID No. 21) in the presence of partially-purified COUP-TF (500 ng) and increasing amounts of partially-purified RXR (1×–50 ng) as indicated in FIG. 1. Either 0.3 μl or 1 μl of RXR-specific antiserum was included in the assays (shown in lanes 11 and 12, respectively). The positions of the RXR-specific and COUP-TF-specific complexes are indicated in FIG. 1 by a plain line ("–"). […] The free probe was run off the gel and is not shown.

[5] = target: T2, COUP-TF/RXRalpha heterodimer; experiment: EMSA; heterodimer favored over homodimers; supershifted by RXR antiserum; conditions: tags: RXR as GST fusion; label: 32P
Description: as §1, §2

[6] = target: T4, hRARα expressed in cells from RS-hRARα (human, UniProt P10276 1-462); experiment: gel mobility shift, βRARE probe, whole-cell extracts of transfected Cos cells
T4 construct: Intracellular expression; whole cell extracts in the Cos cell gel shifts; also called RS-hRARa; RS-RARα
T4 sequence (looked up): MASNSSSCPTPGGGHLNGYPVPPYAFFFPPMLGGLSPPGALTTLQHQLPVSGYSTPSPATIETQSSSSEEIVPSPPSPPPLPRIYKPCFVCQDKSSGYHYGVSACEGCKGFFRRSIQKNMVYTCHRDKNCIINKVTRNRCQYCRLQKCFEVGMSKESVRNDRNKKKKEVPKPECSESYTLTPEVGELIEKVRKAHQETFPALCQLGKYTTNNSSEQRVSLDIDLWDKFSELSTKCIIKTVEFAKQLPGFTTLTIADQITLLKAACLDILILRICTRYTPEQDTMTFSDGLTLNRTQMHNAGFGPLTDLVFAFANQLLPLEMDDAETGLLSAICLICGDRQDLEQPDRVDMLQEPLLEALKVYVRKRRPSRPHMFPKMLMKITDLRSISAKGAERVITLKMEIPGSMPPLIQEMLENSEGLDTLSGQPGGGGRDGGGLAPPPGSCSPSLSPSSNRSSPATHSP
Description: DNA-protein complexes were resolved on a 4% polyacrylamide gel in 0.5×TBE (1×TBE=90 mM Tris, 90 mM boric acid, 2 mM EDTA).

B1: CRBPII-RXRE (dsDNA)
DNA 1: AGCTGTCACAGGTCACAGGTCACAGGTCACAGTTCAAGCT
DNA 2: AGCTTGAACTGTGACCTGTGACCTGTGACCTGTGACAGCT
B1: binds (RAR/RXR heterodimer [1]).

B2: chicken ovalbumin upstream promotor transcription factor (COUP-TF; EAR-3) (receptor, UniProt P10589 1-423, looked up)
chain: T3 sequence
notes: mature; Partially purified bacterial protein in the gel shifts; also called bacterially-expressed COUP-TF; RS-COUP-TF product
B2: binds [2].

B3: COUP-TF RE (ovalbumin) (dsDNA)
DNA 1: AGCTTGGTGTCAAAGGTCAAACTTAGCT
DNA 2: AGCTAAGTTTGACCTTTGACACCAAGCT
B3: binds [3].

B4: βRARE (dsDNA)
DNA 1: AGCTTAAGGGTTCACCGAAAGTTCACTCGCATAGCTGCT
DNA 2: AGCAGCTATGCGAGTGAACTTTCGGTGAACCCTTAAGCT
B4: binds (RAR/RXR heterodimer [4]).

B5: DR-1 (dsDNA)
DNA 1: AGCTTCAGGTCAGAGGTCAGAGAGCT
DNA 2: AGCTCTCTGACCTCTGACCTGAAGCT
B5: binds (COUP-TF (EAR-3)); binds [5].

B6: hRXRα expressed in cells from RS-hRXRα (receptor, human, UniProt P19793 1-462, looked up)
chain: MDTKHFLPLDFSTQVNSSLTSPTGRGSMAAPSLHPSLGPGIGSPGQLHSPISTLSSPINGMGPPFSVISSPMGPHSMSVPTTPTLGFSTGSPQLSSPMNPVSSSEDIKPPLGLNGVLKVPAHPSGNMASFTKHICAICGDRSSGKHYGVYSCEGCKGFFKRTVRKDLTYTCRDNKDCLIDKRQRNRCQYCRYQKCLAMGMKREAVQEERQRGKDRNENEVESTSSANEDMPVERILEAELAVEPKTETYVEANMGLNPSSPNDPVTNICQAADKQLFTLVEWAKRIPHFSELPLDDQVILLRAGWNELLIASFSHRSIAVKDGILLATGLHVHRNSAHSAGVGAIFDRVLTELVSKMRDMQMDKTELGCLRAIVLFNPDSKGLSNPAEVEALREKVYASLEAYCKHKYPEQPGRFAKLLLRLPALRSIGLKCLEHLFFFKLIGDTPIDTFLMEMLEAPHQMT
notes: Intracellular expression; whole cell extracts in the Cos cell gel shifts; also called RS-hRXRa
B6: binds [6].

B7: RXR-glutathione-S-transferase fusion protein (hRXRα expressed in bacteria as a fusion with glutathione-S-transferase, pGEX-2T) (receptor, human, UniProt P19793 1-462, looked up)
chain: B6 chain
notes: GST placed N-terminal as in pGEX-2T vectors; also called RXR-GST; GST-RXR; not shown: glutathione-S-transferase encoded by the pGEX-2T expression vector
B7: binds [2].
